For the experiment, the target named is actin (rabbit muscle), P68135. As to the kind of experiment: fluorescence anisotropy. The following applies: chain shown with the change, actin filaments titrated 0-12 µM. In general terms: Fluorescence polarisation rises when a labelled molecule tumbles more slowly, as on binding a larger partner.

Positions count from the first letter of the chain named.

B1: Cdc42EP3 labeled with tetramethylrhodamine (TMR) at C211, Q9UKI2 KLP->AAA (protein)
chain: MPAKTPIYLKAANNKKGKKFKLRDILSPDMISPPLGDFRHTIHIGKEGQHDVFGDISFLQGNYELLPGNQEKAHLGQFPGHNEFFRANSTSDSVFTETPSPVLKNAISLPTIGGSQALMLPLLSPVTFNSKQESFGPAAAARLSAEPVMEEKAQEKSSLLENGTVHQGDTSWGSSGSASQSSQGRDSHSSSLSEQYPDWPAEDMFDHPTPCELIKGKTKSEESLSDLTGSLLSLQLDLGPSLLDEVLNVMDKNK
B1 gave a Kd (20 nM TMR-labeled KLP-AAA Cdc42EP3 (TMR at C211) held fixed) of 3.4 µM.

B2: Cdc42EP3 labeled with tetramethylrhodamine (TMR) at C211, Q9UKI2 IS->AA (protein)
chain: B1 chain with I31A, S32A, A139K, A140L, A141P
B2 yielded a dissociation constant (Kd) (20 nM TMR-labeled IS-AA Cdc42EP3 (TMR at C211) held fixed) of 2.8 µM.

For orientation: Kd means the free concentration of one partner at which half of the binding sites on the other are occupied at equilibrium, for simple one-to-one binding. Lower therefore signals a tighter complex.

The record behind these values is paper PMC11952830.
